Experimental data: patent publication US20170210777A1

Target: human IgG antibody (human)
Experiment: SPR (Biacore), ligand immobilised on CM5

koff: 0.00032 s⁻¹
Substance: modified protein A (manufactured by Sino Biological Inc.)
